Measured values: PMC5993331

Columns and labels:
[1] = molecular target: factor H (FH) from Coturnix quail (Coturnix coturnix quail); assay: ELISA; one microgram of FH coated on microtiter wells; 0.03125 to 2 μM histidine-tagged CspA proteins or DbpA added; detected by mouse anti-histidine tag; KD from a one-site fit of OD405
[2] = molecular target: factor H (FH) from human, purified (human) (UniProt P08603); assay: as above
[3] = molecular target: factor H (FH) from mouse, purified (mouse (Mus musculus)) (UniProt P06909); assay: as above
[4] = molecular target: factor H (FH) from horse (horse); assay: as above
[5] = molecular target: factor H (FH) from human, purified (human) (UniProt P08603); assay: SPR; Biacore 3000; ten micrograms of FH from human, mouse or horse conjugated to a CM5 chip; CspA proteins injected at 10 μL/min, 25°C; 1:1 Langmuir model
[6] = molecular target: factor H (FH) from mouse, purified (mouse (Mus musculus)) (UniProt P06909); assay: as above
[7] = molecular target: factor H (FH) from horse (horse); assay: as above
[8] = molecular target: human complement C7 (human) (UniProt P10643); assay: SPR; Biacore 3000; ten micrograms of human C7, C9 or plasminogen conjugated on a CM5 chip (2823, 2034 and 2106 RU); 0.0625 to 1 uM histidine tagged CspA protein flowed over at 10 uL/min, 25°C; 1:1 Langmuir model
[9] = molecular target: human complement C9 (human) (UniProt P02748); assay: as above
[10] = molecular target: human plasminogen (human); assay: as above

Chain of human complement C9 (human) (P02748 22-559): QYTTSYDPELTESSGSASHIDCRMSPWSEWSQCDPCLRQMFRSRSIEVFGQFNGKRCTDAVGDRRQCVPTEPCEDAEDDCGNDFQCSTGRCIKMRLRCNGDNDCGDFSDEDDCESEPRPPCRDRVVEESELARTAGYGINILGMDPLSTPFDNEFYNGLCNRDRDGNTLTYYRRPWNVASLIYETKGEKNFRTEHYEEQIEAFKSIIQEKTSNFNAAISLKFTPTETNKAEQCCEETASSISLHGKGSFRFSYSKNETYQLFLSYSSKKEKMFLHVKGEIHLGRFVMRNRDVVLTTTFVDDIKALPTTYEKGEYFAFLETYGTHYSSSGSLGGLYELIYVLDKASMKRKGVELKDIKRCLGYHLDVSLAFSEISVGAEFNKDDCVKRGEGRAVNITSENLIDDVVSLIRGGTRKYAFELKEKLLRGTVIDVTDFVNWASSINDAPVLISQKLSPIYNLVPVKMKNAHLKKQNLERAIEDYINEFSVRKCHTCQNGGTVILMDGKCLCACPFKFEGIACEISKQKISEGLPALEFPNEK
Chain of factor H (FH) from mouse, purified (mouse (Mus musculus)) (P06909 19-1234): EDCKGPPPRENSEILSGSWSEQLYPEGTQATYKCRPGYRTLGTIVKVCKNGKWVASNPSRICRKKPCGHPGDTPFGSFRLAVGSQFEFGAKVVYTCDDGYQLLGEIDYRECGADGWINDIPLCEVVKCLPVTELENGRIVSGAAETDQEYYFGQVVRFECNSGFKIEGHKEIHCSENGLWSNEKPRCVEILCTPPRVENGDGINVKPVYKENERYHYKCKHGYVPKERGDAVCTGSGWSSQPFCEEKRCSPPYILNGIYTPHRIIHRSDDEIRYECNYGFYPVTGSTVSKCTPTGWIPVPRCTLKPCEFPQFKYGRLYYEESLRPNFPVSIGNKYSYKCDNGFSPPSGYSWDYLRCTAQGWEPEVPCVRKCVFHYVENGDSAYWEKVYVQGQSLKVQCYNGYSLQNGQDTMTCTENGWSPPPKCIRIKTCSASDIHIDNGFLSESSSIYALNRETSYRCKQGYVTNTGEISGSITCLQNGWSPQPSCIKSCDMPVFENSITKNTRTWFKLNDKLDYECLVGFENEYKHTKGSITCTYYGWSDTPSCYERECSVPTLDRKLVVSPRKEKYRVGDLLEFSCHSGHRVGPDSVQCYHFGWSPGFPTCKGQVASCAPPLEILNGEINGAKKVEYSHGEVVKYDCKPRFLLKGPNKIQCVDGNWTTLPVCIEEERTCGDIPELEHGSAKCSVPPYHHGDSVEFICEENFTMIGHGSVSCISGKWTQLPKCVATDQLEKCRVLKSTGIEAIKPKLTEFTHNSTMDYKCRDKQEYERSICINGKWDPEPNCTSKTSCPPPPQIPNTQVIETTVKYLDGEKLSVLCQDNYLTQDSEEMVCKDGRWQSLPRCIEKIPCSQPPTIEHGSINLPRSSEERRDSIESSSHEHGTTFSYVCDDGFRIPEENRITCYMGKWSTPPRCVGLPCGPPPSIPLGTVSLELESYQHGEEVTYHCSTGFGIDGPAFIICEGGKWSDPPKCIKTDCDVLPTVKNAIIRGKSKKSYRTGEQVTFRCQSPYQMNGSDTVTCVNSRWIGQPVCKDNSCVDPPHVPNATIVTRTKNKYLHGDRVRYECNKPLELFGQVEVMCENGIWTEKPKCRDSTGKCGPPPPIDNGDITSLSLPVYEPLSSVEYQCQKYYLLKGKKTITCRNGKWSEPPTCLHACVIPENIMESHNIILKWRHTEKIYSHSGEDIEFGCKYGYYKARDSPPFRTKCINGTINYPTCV
Chain of factor H (FH) from human, purified (human) (P08603 19-1231): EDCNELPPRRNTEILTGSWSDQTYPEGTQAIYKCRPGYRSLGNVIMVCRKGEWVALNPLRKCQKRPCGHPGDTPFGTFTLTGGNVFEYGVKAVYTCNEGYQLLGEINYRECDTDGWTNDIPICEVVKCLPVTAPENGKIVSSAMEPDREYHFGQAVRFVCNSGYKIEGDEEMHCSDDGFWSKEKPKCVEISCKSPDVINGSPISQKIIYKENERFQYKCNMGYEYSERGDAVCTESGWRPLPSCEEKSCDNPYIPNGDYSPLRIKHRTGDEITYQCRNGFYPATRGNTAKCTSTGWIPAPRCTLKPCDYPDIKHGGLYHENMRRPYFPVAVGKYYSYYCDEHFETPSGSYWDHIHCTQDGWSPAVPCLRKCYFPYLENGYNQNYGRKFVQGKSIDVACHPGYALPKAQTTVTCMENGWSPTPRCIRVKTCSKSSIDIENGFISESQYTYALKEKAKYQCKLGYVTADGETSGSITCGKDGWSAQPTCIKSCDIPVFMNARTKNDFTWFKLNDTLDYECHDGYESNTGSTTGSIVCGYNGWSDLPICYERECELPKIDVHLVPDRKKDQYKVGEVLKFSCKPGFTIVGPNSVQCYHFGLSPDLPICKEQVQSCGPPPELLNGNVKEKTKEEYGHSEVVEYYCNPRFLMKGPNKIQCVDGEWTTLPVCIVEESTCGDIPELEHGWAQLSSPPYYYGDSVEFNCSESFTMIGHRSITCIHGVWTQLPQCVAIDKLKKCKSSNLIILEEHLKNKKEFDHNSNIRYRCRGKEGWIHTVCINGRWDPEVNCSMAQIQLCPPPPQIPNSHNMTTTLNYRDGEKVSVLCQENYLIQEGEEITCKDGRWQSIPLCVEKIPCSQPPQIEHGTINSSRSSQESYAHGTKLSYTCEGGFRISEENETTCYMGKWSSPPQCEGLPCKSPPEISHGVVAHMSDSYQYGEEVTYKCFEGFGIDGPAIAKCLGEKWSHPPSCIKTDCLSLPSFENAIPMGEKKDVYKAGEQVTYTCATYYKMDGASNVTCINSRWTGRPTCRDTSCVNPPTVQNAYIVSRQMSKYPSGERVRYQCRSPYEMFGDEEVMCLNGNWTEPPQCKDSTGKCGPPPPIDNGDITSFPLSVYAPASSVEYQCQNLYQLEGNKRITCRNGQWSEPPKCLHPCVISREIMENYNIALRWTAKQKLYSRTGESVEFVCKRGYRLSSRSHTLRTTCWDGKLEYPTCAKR
Chain of human complement C7 (human) (P10643 23-843): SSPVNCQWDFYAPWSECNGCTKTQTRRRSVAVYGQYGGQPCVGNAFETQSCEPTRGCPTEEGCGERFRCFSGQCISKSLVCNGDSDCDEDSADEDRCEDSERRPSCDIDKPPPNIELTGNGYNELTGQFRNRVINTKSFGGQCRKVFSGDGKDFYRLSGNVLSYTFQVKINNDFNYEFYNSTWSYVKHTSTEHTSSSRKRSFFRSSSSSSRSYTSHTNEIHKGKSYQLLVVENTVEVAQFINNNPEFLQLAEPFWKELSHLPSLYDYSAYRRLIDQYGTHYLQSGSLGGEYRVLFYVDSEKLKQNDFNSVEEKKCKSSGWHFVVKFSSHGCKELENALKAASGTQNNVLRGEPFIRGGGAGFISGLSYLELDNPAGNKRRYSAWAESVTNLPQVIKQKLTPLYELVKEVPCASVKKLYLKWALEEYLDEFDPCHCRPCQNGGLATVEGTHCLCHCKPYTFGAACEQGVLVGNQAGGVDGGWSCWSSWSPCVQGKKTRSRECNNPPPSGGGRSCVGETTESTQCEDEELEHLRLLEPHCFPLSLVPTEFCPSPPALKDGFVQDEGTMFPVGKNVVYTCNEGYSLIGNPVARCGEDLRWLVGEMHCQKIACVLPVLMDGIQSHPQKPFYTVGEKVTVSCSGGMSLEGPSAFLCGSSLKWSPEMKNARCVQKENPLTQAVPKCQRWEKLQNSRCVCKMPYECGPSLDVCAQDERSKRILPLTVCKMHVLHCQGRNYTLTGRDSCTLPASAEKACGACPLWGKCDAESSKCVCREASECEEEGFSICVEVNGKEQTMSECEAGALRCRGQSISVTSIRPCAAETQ

recombinant histidine-tagged CspA of B. burgdorferi strain B31 (CspAB31) (natural protein)
Kd [1]: 920 nM | Kd [2]: 410 nM | Kd [3]: 230 nM | Kd [4]: 880 nM | Kd [5]: 200 nM | koff [5]: 0.017 s⁻¹ | kon [5]: 114000 M⁻¹ s⁻¹ | Kd [6]: 70 nM | koff [6]: 0.012 s⁻¹ | kon [6]: 188000 M⁻¹ s⁻¹ | Kd [7]: 550 nM | koff [7]: 0.014 s⁻¹ | kon [7]: 30000 M⁻¹ s⁻¹

recombinant histidine-tagged CspA of B. garinii strain ZQ1 (CspAZQ1) (natural protein)
Kd [1]: 360 nM

CspA (Bba68) from B. burgdorferi strain B31, histidine tagged, residue 26 to 252 with leucine-246 replaced by aspartate (domain or fragment)
Kd [8]: 3500 nM | koff [8]: 0.38 s⁻¹ | kon [8]: 143000 M⁻¹ s⁻¹ | Kd [9]: 5400 nM | koff [9]: 0.36 s⁻¹ | kon [9]: 70000 M⁻¹ s⁻¹ | Kd [10]: 6480 nM | koff [10]: 0.29 s⁻¹ | kon [10]: 49000 M⁻¹ s⁻¹

CspA (Bba68) from B. burgdorferi strain B31, histidine tagged, residue 26 to 252 (domain or fragment)
Kd [8]: 5260 nM | koff [8]: 0.45 s⁻¹ | kon [8]: 94000 M⁻¹ s⁻¹ | Kd [9]: 5470 nM | koff [9]: 0.32 s⁻¹ | kon [9]: 60000 M⁻¹ s⁻¹ | Kd [10]: 6350 nM | koff [10]: 0.26 s⁻¹ | kon [10]: 43000 M⁻¹ s⁻¹

recombinant histidine-tagged CspA of B. afzelii strain PKo (CspAPKo) (from UniProt G0IU82 1-241) (natural protein)
Kd [2]: 160 nM | Kd [3]: 760 nM | Kd [5]: 110 nM | koff [5]: 0.014 s⁻¹ | kon [5]: 152000 M⁻¹ s⁻¹ | Kd [6]: 460 nM | koff [6]: 0.048 s⁻¹ | kon [6]: 115000 M⁻¹ s⁻¹
